From PMC10454150, “Molecular Mechanism of a FRET Biosensor for the Cardiac Ryanodine Receptor Pathologically Leaky State” (International Journal of Molecular Sciences, 2023)
Ends that are not written are not given here. QXL520 = non-fluorescent dark acceptor (quencher) probe

What was measured:
[1] = target: type 2 ryanodine receptor (RyR2) channel in cardiac SR membranes (pig (endogenous in porcine heart SR)); assay: FRET or BRET; as a1 but 300 uM Ca2+, no DPc10
[2] = target: type 2 ryanodine receptor (RyR2) channel in cardiac SR membranes (pig (endogenous in porcine heart SR)); assay: FRET or BRET; as a1, 30 nM Ca2+, SR pre-treated with 50 uM unlabeled DPc10 for 60 min; apparent affinity
[3] = target: T1, type 2 ryanodine receptor (RyR2) channel in cardiac SR membranes (pig (endogenous in porcine heart SR), UniProt A0A5G2R1W3 1-4900); assay: FRET or BRET; FRET from D-85-FKBP on RyR2 in cardiac SR to A-DPc10, series of [A-DPc10]; Ca2+ not stated for this experiment; Hill fit; conditions: one partner purified
T1 construct: type 2 ryanodine receptor (RyR2), pig heart; homotetrameric assembly of 565-kDa protomers; 'intact RyR2 in cardiac SR vesicles'; In every assay RyR2 stood in native SR membranes and was preloaded with a donor-labelled FKBP12.6 (D-FKBP); also called cardiac ryanodine receptor; source: endogenous, SR vesicles isolated by differential ultracentrifugation of porcine ventricular tissue; residual …

[4] = target: T1, type 2 ryanodine receptor (RyR2) …; assay: FRET or BRET; as a6 but 300 uM Ca2+, no CaM; Hill fit; conditions: one partner purified
[5] = target: T1, type 2 ryanodine receptor (RyR2) …; assay: FRET or BRET; FRET from D-FKBP (labelled position not stated for this experiment) on RyR2 in cardiac SR to A-DPc10 (QXL520), series of [A-DPc10]; 30 nM Ca2+, no CaM; Hill fit; conditions: one partner purified
[6] = target: T1, type 2 ryanodine receptor (RyR2) …; assay: FRET or BRET; as a6 but 300 uM Ca2+, pre-incubated 40 min with unlabeled CaM (1 uM by the legend, 30 uM by the text); apparent affinity; Hill fit; conditions: one partner purified
[7] = target: T1, type 2 ryanodine receptor (RyR2) …; assay: FRET or BRET; FRET from D-14-FKBP on RyR2 in cardiac SR to A-DPc10, series of [A-DPc10]; Ca2+ not stated for this experiment; Hill fit; conditions: one partner purified
[8] = target: T1, type 2 ryanodine receptor (RyR2) …; assay: FRET or BRET; FRET from D-32-FKBP (loss-of-inhibition variant) on RyR2 in cardiac SR to A-DPc10, series of [A-DPc10]; Ca2+ not stated for this experiment; Hill fit; conditions: one partner purified
[9] = target: T1, type 2 ryanodine receptor (RyR2) …; assay: FRET or BRET; as a6, 30 nM Ca2+, pre-incubated 40 min with unlabeled CaM (1 uM by the legend, 30 uM by the text); apparent affinity; Hill fit; conditions: one partner purified
[10] = target: T1, type 2 ryanodine receptor (RyR2) …; assay: FRET or BRET; FRET from D-FKBP (labelled position not stated for this experiment) on RyR2 in cardiac SR to A-DPc10 (QXL520), series of [A-DPc10]; 30 nM Ca2+, no CaM; Hill fit; conditions: one partner purified; remark: listed apart in the source
[11] = target: T1, type 2 ryanodine receptor (RyR2) …; assay: FRET or BRET; FRET from D-49-FKBP on RyR2 in cardiac SR to A-DPc10, series of [A-DPc10]; Ca2+ not stated for this experiment; Hill fit; conditions: one partner purified

Molecule: acceptor-labeled calmodulin (A-CaM), Alexa Fluor 555 at a cysteine substituted at position 34 (natural protein)
- fold higher affinity in 300 uM Ca2+ against 30 nM Ca2+ [1]: 2.7 fold
- fold decrease of apparent affinity with 50 uM DPc10 against no DPc10 [2]: 4 fold

B1: acceptor-labeled DPc10 (A-DPc10), QXL520 at the N-terminus (peptide)
peptide: QXL520-GFCPDHKAAMVLFLDRVYGIEVQDFLLHLLEVGFLP
notes: also called acceptor-DPc10; source: synthetic peptide (AnaSpec)
- Kd [3]: 10.4 µM
- Kd [4]: 13.2 µM
- Kd [5]: 10.3 µM
- Kd [6]: 33.9 µM
- Kd [7]: 10 µM
- Kd [8]: 13.1 µM
- Kd [9]: 14.6 µM
- Kd [10]: 10.4 µM
- Kd [11]: 9.9 µM
